According to paper PMC11480844 (2024):

B1: H2-Kb / Ed31 (parent complex)
chain 1: GQQVQQSPASLVLQEGENAELQCNFSTSLNSMQWFYQRPGGSLVSLFYNPSGTKHSGRLTSTTVIKERRSSLHISSSQTTDSGTYLCALEGNYAQGLTFGLGTRVSVFP
chain 2: ETAVFQTPNYHVTQVGNEVSFNCKQTLGHDTMYWYKQDSKKLLKIMFSYNNKQLIVNETVPRRFSPQSSDKAHLNLRIKSVEPEDSAVYLCASRSAGEQYFGPGTRLTVL
chain 3: not shown
chain 4: IQKTPQIQVYSRHPPENGKPNILNCYVTQFHPPHIEIQMLKNGKKIPKVEMSDMSFSKDWSFYILAHTEFTPTETDTYACRVKHDSMAEPKTVYWDRDM
chain 5: SIINFEKL
B2: H2-Kb / Ed16-30 (parent complex)
chain 1: GEQVEQRPPHLSVREGDSAVIICTYTDPNSYYFFWYKQEPGAGLQLLMKVFSSTEINEGQGFTVLLNKKDKQLSLNLTAAHPGDSAVYFCAVSEPSSGQKLVFGQGTILKVYL
chain 2: EAAVTQSPRNKVAVTGGKVTLSCNQTNNHNNMYWYRQDTGHGLRLIHYSYGAGSTEKGDIPDGYKASRPSQENFSLILELATPSQTSVYFCAGRDTGQLYFGEGSKLTVL
chain 3: not shown
chain 4: B1 chain 4
chain 5: SIINFEKL

Variants of: B1
Assay: % of reporter cells activated (NFAT-GFP), raw
Note: test concentration or dose not given here.

ratio to parent | Variant
0.555 | chain 5 I3C
0.225 | chain 5 I3N
0.0382 | chain 5 I3Y
0.42 | chain 5 N4W
0.504 | chain 5 S1D
1.04 | chain 5 S1H
0.551 | chain 5 S1V
0.561 | chain 5 S1E
1.04 | chain 5 S1G
0.68 | chain 5 F5C
0.323 | chain 5 K7H
0.176 | chain 5 K7I
0.111 | chain 5 E6Q
0.777 | chain 5 E6K
0.000832 | chain 5 E6I
0.0037 | chain 5 E6L
0.711 | chain 5 L8G
1.12 | chain 5 I2S
1.12 | chain 5 I2L
0.832 | chain 5 I2H
0.962 | chain 5 I2D

Further lines, the variant ahead of its results:

Variant | ratio to parent
chain 5 I3S | 0.38
chain 5 I3K | 0.735
chain 5 I3F | 0.0484
chain 5 N4D | 0.00288
chain 5 N4H | 0.0784
chain 5 N4M | 0.207
chain 5 N4Y | 0.242
chain 5 S1Y | 0.934
chain 5 S1I | 0.676
chain 5 S1T | 0.99
chain 5 F5S | 0.753
chain 5 F5T | 0.956
chain 5 F5P | 0.261
chain 5 F5E | 0.407
chain 5 F5N | 0.525
chain 5 F5K | 0.509
chain 5 K7G | 0.186
chain 5 K7A | 0.41
chain 5 K7Q | 0.146
chain 5 K7C | 0.747
chain 5 E6C | 0.00242
chain 5 L8D | 0.549
chain 5 L8K | 0.854
chain 5 L8M | 0.945
chain 5 I2G | 1.11
chain 5 I2A | 1.18
chain 5 I2N | 0.832
chain 5 I2P | 0.972
chain 5 I2K | 0.818
chain 5 I2Y | 0.658

Variants of: B2
Assay: % of reporter cells activated (NFAT-GFP), raw

ratio to parent | Variant
1.17 | chain 5 K7R
0.842 | chain 5 K7S
0.297 | chain 5 K7Q
0.265 | chain 5 K7Y
0.478 | chain 5 K7H
0.305 | chain 5 K7N
0.386 | chain 5 S1T
0.485 | chain 5 S1G
0.128 | chain 5 S1W
0.144 | chain 5 S1K
0.184 | chain 5 S1R
0.522 | chain 5 S1N
0.323 | chain 5 S1I
1.31 | chain 5 I2D
1.31 | chain 5 I2M
0.726 | chain 5 I2Q
1.08 | chain 5 I2F
1.33 | chain 5 I2V
0.968 | chain 5 I2R
1.33 | chain 5 I2L
0.866 | chain 5 I2W
0.72 | chain 5 I2H

ratio to parent | Variant
1.12 | chain 5 I2C
1.25 | chain 5 F5Q
1.14 | chain 5 F5Y
0.976 | chain 5 F5G
0.969 | chain 5 F5N
1.28 | chain 5 F5M
1.21 | chain 5 F5A
1.21 | chain 5 F5H
1.03 | chain 5 F5W
0.85 | chain 5 F5D
0.0227 | chain 5 E6V
0.503 | chain 5 E6K
0.363 | chain 5 E6R
0.308 | chain 5 E6Y
1.28 | chain 5 E6D
0.197 | chain 5 E6C
0.588 | chain 5 E6N
0.35 | chain 5 E6F
0.488 | chain 5 E6H
0.545 | chain 5 E6T
1.12 | chain 5 L8F
0.836 | chain 5 L8P

ratio to parent | Variant
0.823 | chain 5 L8E
1 | chain 5 L8V
1.19 | chain 5 L8I
1.09 | chain 5 L8T
1.04 | chain 5 L8R
0.00803 | chain 5 N4F
0.0285 | chain 5 N4G
0.0129 | chain 5 N4W
0.00872 | chain 5 N4E
0.0322 | chain 5 N4Y
0.0901 | chain 5 N4Q
0.121 | chain 5 N4P
0.9 | chain 5 N4D
0.0453 | chain 5 N4I
1.03 | chain 5 I3L
0.69 | chain 5 I3F
0.607 | chain 5 I3Y
0.393 | chain 5 I3S
0.137 | chain 5 I3G
0.322 | chain 5 I3Q
0.45 | chain 5 I3E

Continued, variant first:

Variant | ratio to parent
chain 5 K7L | 0.401
chain 5 K7M | 0.57
chain 5 K7P | 0.796
chain 5 K7C | 0.563
chain 5 K7F | 0.106
chain 5 K7A | 0.499
chain 5 S1H | 0.259
chain 5 S1V | 0.362
chain 5 S1D | 0.337
chain 5 I2G | 1.25
chain 5 I2T | 1.18
chain 5 F5K | 1.04
chain 5 F5P | 0.769
chain 5 F5T | 1.23
chain 5 F5R | 1.19
chain 5 F5I | 1.11
chain 5 F5V | 1.25

Variant | ratio to parent
chain 5 F5S | 1.19
chain 5 E6W | 0.422
chain 5 E6G | 0.543
chain 5 E6P | 0.508
chain 5 E6Q | 0.745
chain 5 L8Y | 1.13
chain 5 L8C | 0.731
chain 5 L8W | 0.929
chain 5 L8D | 0.715
chain 5 N4L | 0.507
chain 5 N4V | 0.0105
chain 5 I3R | 0.104
chain 5 I3T | 0.613
chain 5 I3W | 0.537
chain 5 I3C | 0.642
chain 5 I3D | 0.562
chain 5 I3A | 0.413
